The source of these data is paper doi:10.1101/676627 (bioRxiv, 2019).

Usually stoichiometry N stands for the number of molecules, sites or subunits per partner or assembly.

Series [1] deals with the molecule itself. Description: crystal structure.
Series [2] concerns the molecule itself. Description: SEC-MALS.

Changes are numbered by the printed parent chain. Numbers in names are those of the source.

B1: ROCext surface engineered mutant (KA), K1460A and K1463A (domain or fragment, human, UniProt Q5S007 1329-1520, looked up)
chain: AVPYNRMKLMIVGNTGSGKTTLLQQLMKTKKSDLGMQSATVGIDVKDWPIQIRDKRKRDLVLNVWDFAGREEFYSTHPHFMTQRALYLAVYDLSKGQAEVDAMKPWLFNIKARASSSPVILVGTHLDVSDEAQRAACMSKITKELLNKRGFPAIRDYHFVNATEESDALAKLRKTIINESLNFKIRDQLVVG
On to B1, for which, in series [1], the “stoichiometry N” value was found to be 2.

B2: ROCext, wild-type GTPase (ROC) domain of human LRRK2, residues 1329-1520 (domain or fragment, UniProt Q5S007 1329-1520, looked up)
chain: B1 chain with A132K, A135K
B2: in series [2], the “stoichiometry N” value was determined as 2.
